Experimental data: patent publication US20140157444A1 (COUNCIL OF SCIENTIFIC AND INDUSTRIAL RESEARCH, published 2014)

Assays:
[1] = target: T1, hHDAC4-FLAG (human, UniProt P56524 1-1084, limits assumed); assay: co-immunoprecipitation from co-transfected HEK 293 cells: anti-FLAG IP, anti-Myc blot
T1 construct: Species is read from the prefix 'h' of the plasmid name; also called pCMX-hHDAC4-FLAG; not shown: FLAG tag
Text: (§1) FIG. 10. Identification of proteins interacting with WDR13. […] B) Immunolocalization of WDR13 protein in HELA cells transfected with pCMV-FLAG-Wdr13 (SEQ ID NO: 3) vector using anti FLAG antibody. C) Silver stained gel of immunoprecipitated proteins using anti FLAG antibody from HELA cells transfected with pCMV-FLAG control and pCMV-FLAG-Wdr13 vectors having SEQ ID NO: 3.
(§2) FIG. 11. Interactions of WDR13 with ERs, HDACs and PHIP1 A) HEK 293 cells were co-transfected with FLAG-Wdr13 (from the position 922 to 2443 in SEQ ID NO: 3) and GFP-ERα, grown in the presence or absence of estradiol. The cell lysate was immunoprecipitated with anti FLAG antibody and immunoblotted with anti GFP antibody. […] B) HEK 293 cells were co-transfected with FLAG-Wdr13 (from the position 922 to 2443 in SEQ ID NO: 3) and Myc-ERβ I (from the position 900-2673 in SEQ ID NO: 6), grown in the presence or absence of estradiol. The cell lysate was immunoprecipitated with anti FLAG antibody and immunoblotted with anti Myc antibody. […] C) HEK 293 cells were co-transfected with Myc-Wdr13 (from the position 900 to 2448 in SEQ ID NO: 4)/various FLAG-HDACs and the cell lysate was immunoprecipitated with anti FLAG antibody and immunoblotted with anti Myc antibody.

[2] = target: T2, mHDAC2-FLAG (mouse, UniProt P70288 1-488); assay: as above
T2 construct: Species is read from the prefix 'm' of the plasmid name; also called pCMX-mHDAC2-FLAG; not shown: FLAG tag
Text: as §1, §2

T2 sequence (P70288 whole entry): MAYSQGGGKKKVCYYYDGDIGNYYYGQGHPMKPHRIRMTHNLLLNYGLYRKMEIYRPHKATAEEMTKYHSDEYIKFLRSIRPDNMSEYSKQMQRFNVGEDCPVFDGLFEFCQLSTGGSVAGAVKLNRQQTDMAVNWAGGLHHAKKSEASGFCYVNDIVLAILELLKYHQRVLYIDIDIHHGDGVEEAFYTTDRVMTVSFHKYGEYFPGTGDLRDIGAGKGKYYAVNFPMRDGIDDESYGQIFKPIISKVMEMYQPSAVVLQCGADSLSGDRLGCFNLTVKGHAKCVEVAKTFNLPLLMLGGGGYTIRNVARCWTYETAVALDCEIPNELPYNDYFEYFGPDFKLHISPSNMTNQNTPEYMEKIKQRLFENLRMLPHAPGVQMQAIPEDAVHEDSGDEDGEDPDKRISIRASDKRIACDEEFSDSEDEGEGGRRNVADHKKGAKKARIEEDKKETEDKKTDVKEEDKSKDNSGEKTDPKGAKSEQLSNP
T1 sequence (P56524 whole entry): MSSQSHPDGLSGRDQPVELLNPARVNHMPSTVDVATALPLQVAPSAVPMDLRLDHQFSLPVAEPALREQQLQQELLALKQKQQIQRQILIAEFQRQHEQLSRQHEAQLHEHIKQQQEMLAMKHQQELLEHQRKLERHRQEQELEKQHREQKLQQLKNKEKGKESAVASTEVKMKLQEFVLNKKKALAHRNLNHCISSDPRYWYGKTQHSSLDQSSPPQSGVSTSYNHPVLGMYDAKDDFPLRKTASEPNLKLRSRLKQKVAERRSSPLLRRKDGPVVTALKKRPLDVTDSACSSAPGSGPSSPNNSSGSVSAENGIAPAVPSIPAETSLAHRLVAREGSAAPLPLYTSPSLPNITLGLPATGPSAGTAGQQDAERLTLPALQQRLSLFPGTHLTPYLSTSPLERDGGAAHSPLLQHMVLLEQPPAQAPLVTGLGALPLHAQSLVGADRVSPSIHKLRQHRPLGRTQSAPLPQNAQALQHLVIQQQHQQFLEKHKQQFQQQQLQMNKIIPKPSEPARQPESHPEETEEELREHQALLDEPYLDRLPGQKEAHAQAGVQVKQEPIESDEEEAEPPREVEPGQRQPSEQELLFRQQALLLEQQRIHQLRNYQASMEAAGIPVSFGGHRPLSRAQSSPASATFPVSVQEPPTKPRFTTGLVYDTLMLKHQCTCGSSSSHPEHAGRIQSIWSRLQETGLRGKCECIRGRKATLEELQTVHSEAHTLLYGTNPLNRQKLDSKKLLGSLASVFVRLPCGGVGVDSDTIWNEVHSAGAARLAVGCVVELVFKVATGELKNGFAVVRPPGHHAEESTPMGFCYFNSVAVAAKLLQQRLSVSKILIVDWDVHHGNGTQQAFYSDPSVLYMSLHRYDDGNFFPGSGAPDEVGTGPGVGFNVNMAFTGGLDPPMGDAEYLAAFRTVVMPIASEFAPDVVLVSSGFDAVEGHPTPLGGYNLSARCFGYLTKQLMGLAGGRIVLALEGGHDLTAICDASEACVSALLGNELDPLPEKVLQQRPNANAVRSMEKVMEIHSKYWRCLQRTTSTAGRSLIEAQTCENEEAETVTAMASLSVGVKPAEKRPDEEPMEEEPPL

B1: Myc WDR13 fusion protein (other, mouse, UniProt Q91V09 1-485, looked up)
chain: MAAVWQQVLAVDARYNAYRTPTFPQFRTQYIRRRSQLLRENAKAGHPPALRRQYLRLRGQLLGQRYGPLSEPGSARAYSNSIVRSSRTTLDRMEDFEDDPRALGARGHRRSVSRGSYQLQAQMNRAVYEDRPPGSVVPTSVAEASRAMAGDTSLSENYAFAGMYHVFDQHVDEAVPRVRFANDDRHRLACCSLDGSISLCQLVPAPPTVLHVLRGHTRGVSDFAWSLSNDILVSTSLDATMRIWASEDGRCIREIPDPDGAELLCCTFQPVNNNLTVVGNAKHNVHVMNISTGKKVKGGSSKLTGRVLALSFDAPGRLLWAGDDRGSVFSFLFDMATGKLTKAKRLVVHEGSPVTSISARSWVSREARDPSLLINACLNKLLLYRVVDNEGALQLKRSFPIEQSSHPVRSIFCPLMSFRQGACVVTGSEDMCVHFFDVERAAKAAVNKLQGHSAPVLDVSFNCDESLLASSDASGMVIVWRREQK
notes: Overexpressed in HEK 293 cells; (mouse gene); also called pCMV-Myc-Wdr13; not shown: Myc peptide at the N-terminus, from the pCMV-Myc vector
B1: no binding [1]; no binding [2].
